From patent US20260242478A1 (published 2026)
Where two headings read alike, the source gives them in different places. Where no end group is shown, it is not given here.

Experiments:
[1] = biological target: T1, Anti-CD28 scFv (VH - linker 1 - VL) (biotinylated (site not stated)); experiment: phage binding ELISA; biotinylated anti-CD28 scFv on neutravidin plate, clonal phage supernatant, anti-M13 HRP detection
[2] = biological target: T1, Anti-CD28 scFv (VH - linker 1 - VL); experiment: phage binding ELISA on captured anti-CD28 scFv; wells pre-incubated with soluble CD28 protein (competitor)
Method: Clonal phage were harvested as crude supernatants and screened via standard enzyme linked immunosorbent assays (ELISAs). […] Prior to the addition of clonal phage, wells were incubated with blocking buffer and CD28 soluble protein or blocking buffer alone. Without washing or aspirating, clonal phage supernatants were then added to the wells and incubated for a short time. Wells were then washed followed by detection of bound phage using a horse radish peroxidase conjugated anti-M13 antibody.

PSMA Fab [3] = biological target: T2, PSMA Fab; experiment: competition ELISA; peptide 0-100 µM with 0.3 nM PSMA Fab on plate-captured biotinylated PSMA
T2 construct: also called 006 PSMA Fab; anti-PSMA Fab

PSMA Fab [4] = biological target: T2, PSMA Fab; experiment: as above; remark: listed apart in the source

T1 sequence (scFv, as listed by the source): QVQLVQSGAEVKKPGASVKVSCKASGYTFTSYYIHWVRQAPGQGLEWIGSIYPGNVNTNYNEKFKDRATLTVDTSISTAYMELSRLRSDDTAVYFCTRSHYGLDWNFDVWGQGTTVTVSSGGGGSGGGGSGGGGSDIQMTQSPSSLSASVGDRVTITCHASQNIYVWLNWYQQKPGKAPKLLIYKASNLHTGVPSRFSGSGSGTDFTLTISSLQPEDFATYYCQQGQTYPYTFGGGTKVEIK

Row | Binder | CD28 scFv signal [1] | CD28 scFv signal in presence of CD28 [2] | IC50 (PSMA Fab [3]) [nM] | IC50 (PSMA Fab [4]) [nM]
1 | MHWCPMDQWSNCFN (peptide, not shown: large carriers) [Phage-56 clonal phage peptide] | 0.515 | 0.084 |  | 
2 | LTKLCIPDWMCSEF [Peptide-226] |  |  | 2680 | 
3 | TTHVCIPSWMCSGF (From the Peptide-180 optimisation phage library) [Peptide-280] |  |  |  | 6650
4 | MDWCPRPLWHECFS (peptide, not shown: large carriers) [Phage-45 clonal phage peptide] | 2.35 | 0.121 |  | 
5 | LEKTCIPTWMCVGF [Peptide-234] |  |  | 2080 | 
6 | WEKLCTPAWMCVGF [Peptide-214] |  |  | 3540 | 
7 | MSWCPIHLWNECFN (peptide, not shown: large carriers, cysteine pairing not given here; also: displayed on phage by fusion to pIII, linker and pIII sequence not given here) [Phage-49 clonal phage peptide] | 2.06 | 0.284 |  | 
8 | MDWCPRHLWVHCFN (peptide, not shown: large carriers) [Phage-42 clonal phage peptide] | 2.5 | 0.254 |  | 
9 | MHWCPIDLWAECYA (peptide, not shown: large carriers, cysteine pairing not given here; also: displayed on phage, fused to pIII) [Phage-46 clonal phage peptide] | 2.28 | 0.225 |  | 
10 | PERLCTPPWMCLGF (From the Peptide-180 optimisation phage library) [Peptide-287] |  |  |  | 2220
11 | LEKLCIPAWMCEWL [Peptide-215] |  |  | 2940 | 
12 | VVKACIPTWMCQFV [Peptide-229] |  |  | 4070 | 
13 | ISKWCIPEWMCTSP [Peptide-237] |  |  | 2700 | 
14 | MAWCPVYLWHECFN (peptide, not shown: large carriers) [Phage-47 clonal phage peptide] | 2.27 | 0.351 |  | 
15 | LEKLCKPAWMCVNF [Peptide-238] |  |  | 1550 | 
16 | EFKWCIPSWMCHET [Peptide-228] |  |  | 1920 | 
17 | FEKWCTPPWMCSLF [Peptide-222] |  |  | 4160 | 
18 | MDWCPMHLWNKCFN (peptide, not shown: large carriers, cysteine pairing not given here; also: displayed on phage by fusion to pIII, linker and pIII sequence not given here) [Phage-53 clonal phage peptide] | 1.04 | 0.122 |  | 
19 | MDWCPIALWAECFN (peptide, not shown: large carriers) [Phage-44 clonal phage peptide] | 2.46 | 0.224 |  | 

Row | Binder | CD28 scFv signal [1] | CD28 scFv signal in presence of CD28 [2] | IC50 (PSMA Fab [3]) [nM] | IC50 (PSMA Fab [4]) [nM]
20 | MDWCPRALWAECFN (peptide, not shown: large carriers) [Phage-64 clonal phage peptide] | 2.68 | 0.339 |  | 
21 | MAWCPRDKWSECFS (peptide, not shown: large carriers) [Phage-41 clonal phage peptide] | 0.853 | 0.147 |  | 
22 | VNHWCVPTWMCAGF (From the Peptide-180 optimisation phage library) [Peptide-281] |  |  |  | 1020
23 | MDWCPMDLWDYCFN (peptide, not shown: large carriers, cysteine pairing not given here; also: displayed on phage by fusion to pIII, linker and pIII sequence not given here) [Phage-51 clonal phage peptide] | 1.64 | 0.107 |  | 
24 | MDWCPPYLWNVCFS (peptide, not shown: large carriers, cysteine pairing not given here; also: displayed on phage by fusion to pIII, linker and pIII sequence not given here) [Phage-50 clonal phage peptide] | 1.64 | 0.1 |  | 
25 | FVPLCKPAWMCSFV [Peptide-218] |  |  | 2850 | 
26 | IDKLCIPFWMCENL [Peptide-221] |  |  | 2130 | 
27 | VLKWCRPAWMCEVL [Peptide-216] |  |  | 2910 | 
28 | QDWCPRHMWSFCFH (peptide, not shown: large carriers, cysteine pairing not given here; also: displayed on phage by fusion to pIII, linker and pIII sequence not given here) [Phage-55 clonal phage peptide] | 0.074 | 0.081 |  | 
29 | IDWCPRYLWDECYN (peptide, not shown: large carriers) [Phage-48 clonal phage peptide] | 2.24 | 0.153 |  | 
30 | FEKLCVPKWMCEGI [Peptide-220] |  |  | 1570 | 
31 | MNWCPRDMWYQCFN (peptide, not shown: large carriers, cysteine pairing not given here; also: displayed on phage by fusion to pIII, linker and pIII sequence not given here) [Phage-54 clonal phage peptide] | 1.95 | 0.177 |  | 
32 | VGKLCVPEWMCVGL [Peptide-217] |  |  | 2490 | 
33 | MDWCPINLWDECFS (peptide, not shown: large carriers, cysteine pairing not given here; also: displayed on phage by fusion to pIII, linker and pIII sequence not given here) [Phage-52 clonal phage peptide] | 1.5 | 0.096 |  | 
34 | MDWCPRHRWVDCFY (peptide, not shown: large carriers) [Phage-57 clonal phage peptide] | 0.478 | 0.11 |  | 
35 | MDWCPIDMWDQCFN (peptide, not shown: large carriers) [Phage-40 clonal phage peptide] | 2.66 | 0.297 |  | 
36 | DLRLCKPAWMCYFI [Peptide-223] |  |  | 1470 | 
37 | DLRLCKPAWMCDFI [Peptide-231] |  |  | 1270 | 
38 | EGIRCTPIWMCEGF [Peptide-224] |  |  | 1880 | 
